Results reported in US20180289832A1 (MAGENTA THERAPEUTICS, published 2018).

Tests used:
[1] = molecular target: T1, human CD137 (hCD137) stably over-expressed on Jurkat cells (human, UniProt Q07011 24-255); assay: flow cytometry on Jurkat cells stably over-expressing hCD137; titration of the primary antibody 4 h at 4 °C, secondary anti-mouse AF488, gMFI
T1 construct: also called 4-1BB; TNFRSF9
Procedure: (§1) Jurkat cells (i.e., an immortalized human T lymphocyte cell line) characterized by stable, over-expression of hCD137 were plated at 20,000 cells/well and stained with a titration of primary murine anti-CD137 antibody BBK2 (BBK2-mIgG1) for 4 hours at 4° C. Secondary anti-mouse AF488 stain, at a constant amount, was added for 30 minutes at 4° C. After washing, plates were run on a flow cytometer and binding of BBK2-mIgG1 (and the negative control, i.e., mIgG1) was determined based on geometric mean fluorescence intensity in the AF488 channel.

[2] = molecular target: T1, human CD137 (hCD137) stably …; assay: flow cytometry on Jurkat cells over-expressing hCD137; antibody titration 4 h at 4 C, anti-mouse AF488 secondary, geometric MFI
Procedure: as §1

T1 sequence (Q07011 24-255 limits assumed): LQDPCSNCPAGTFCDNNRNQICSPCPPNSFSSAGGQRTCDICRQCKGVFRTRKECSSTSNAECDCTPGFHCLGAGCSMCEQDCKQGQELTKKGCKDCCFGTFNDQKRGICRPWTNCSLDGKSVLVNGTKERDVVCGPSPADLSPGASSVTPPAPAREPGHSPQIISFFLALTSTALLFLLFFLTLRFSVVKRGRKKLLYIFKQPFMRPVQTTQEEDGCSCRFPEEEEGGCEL

B1: murine anti-CD137 antibody BBK2 (BBK2-mIgG1) (antibody, V domains shown)
VH: QVQLQQPGAELVRPGASVKLSCKASGYTFTSYWINWVKQRPGQGLEWIGNIYPSDSYTNYNQKFKDKATLTVDKSSNTVYMQLNSPTSEDSAVYYCTRNGVEGYPHYYAMEYWGQGTSVTVSS
VL: DIQMTQTTSALSASLGDRVTIGCRASQDLSNHLYWYQQKPDGTVKLLIYYTSRLHSGVPSRFSGSGSGTDYSLTIRNLEQEDVATYFCQQGYTLPYTFGGGTKLEIK
notes: Mouse monoclonal IgG1, kappa (Thermo Fisher); also called BBK-mIgG1; murine BBK2
- EC50 [1]: 0.035 nM
- EC50 [2]: 35 µM
